Measured values published in IntAct's records for PubMed 18552200.

B1: DDB1- and CUL4-associated factor homolog 1 (Arabidopsis thaliana (Mouse-ear cress)), Q9M086 (parent)
chain: MDGQEHAEVPNSMVEDDQSVVAAEAIAELANSTGEPNPEEGEEQSVEDELIAKAQKLMEDITSVANNPNPNILHALSQLLESQESLFLEENGHFSNARGSHNSGKLCILIRENDEFFELISSTFLSENSYSTAVKAASARLLMNCSLTWMYPHVFDDAVTENFKNWVMEEAVKFPGEDSAKKEASDFEMLKTYSTGLLALSLASRGQIVEDVLTSGLSAKLMHYLRVRVLKEPSTSRIHTTETKHVSLKTKEEGRSRVRKIVDTVEGDHVLETDSGREMGQTDVQPDGEFEIDGRDVFNVSGVVDCKIKPGDDNSVRDDPSRHRLNRSKSRGRGRVHEGAPDTEVLLASPRLGRLLVRDRDLSKISDGRNAEDVTVCLGKMKSGIMEIEREDNDECFQGCIIGTKNITDLVKRAVGAAETEARAAHAPDDAAKAAGDAAAELVKTAALEEFKSSGSEEAAVSAATRAAITVIDAAEVSRNPTCVTSDQTTDVSEVSLPDIESLAQLQEKYCIQCLEILGEYVEVLGPVLHEKGVDVCIVLLERTSQLDDRSTVSPLLPDVMKLICALAAHRKFAAMFVERRGILKLLAVPRVSETFYGLSSCLYTIGSLQGIMERVCALPLVVIHQVVKLAIELLDCSQDQARKNSALFFAAAFVFRAILDAFDAQDSLQKLLAILKDAASVRTGANTDRSAPEVMTSSEKQMAFHTCFALRQYFRAHLLLLVDSIRPSRISRGGVPSSMKPNIRAAYKPLDISNEAVDAIFLQLQKDRRLGPTFVKAQWPAVNNFLASSGHVTMLELCQTPPVDRYLHDLLQYAFGVLHIVTSIPDGRKAIAHATLSNNRAGIAVILDAANISNSIVDPEIIQPALNVLINLVCPPPSLSNKPPLAQNHQPVPGQATTRPSTDVAVGTQSTGNAPQTPVAPASSGLVGDRRIFLGAGTGSAGLAAKLEQVYRQAREAVRGNDGIKILLKLLQPRIYVNPPATPDCLRALACRVLLGLARDDTIAQILTKLEVGKSLSELIRDSGGQSSGTDQGRWQAELAQVALELIGIVTNSGHATTLTASDAATPTLRRIERAAIAAATPITYDSKELLLLIHEHLQASGLGDTASALLKEAQLTPLPSSASPSSIAYSTTQEMSTPLAQEQWPSGRANSGFFTSKPKVCAHDEDPNSRSNAALSAKKKHLASSTLEMPTPVAQQQWPSGRANCGFCPSIPKINARDEDPSSRGNAAPSAKKKQLTFSPSFSSQSRKQSFSHDALPQSTQRINCCSNSDPALADTSETAAELVLKNDLDADAQFKTPISFPRKRKLSELRDSSVPGKRIDLGERRNSTFADGSGLQTPASALDANQSGSSRLGQMTPASQLRLPSDPQPSNPERLSLDSLVVQYLKHQHRQCLAPITTLPPVSLLHPHVCPEPKRLLEAPLNMTGRLGTRELQSFYSGVHGNRRDRQFVFSRFKSWRSFRDETALFTCIALLGGTNHIAVGSHAGEIKIFEASSGSMLESVSGHQAPVTLVQPYVSRDTQLLLSSSSSDVQLWDASSITGGPRHSFDGCKAAKFSNSGLQFAALSCEASRKDVLLYDVQTCSPCQKLTDTVTSSRSNPYSLVHFSPCDTLILWNGVLWDRRIPEKVRRFDQFTDYGGGGFHPSRNEVIINSEIWDMRTFKLLRSVPSLDQTAITFNSRGDVIYAMLRRNIEDVMSAVHTRRVKHPLFAAFRTLDAINYSDIATIPVDRCLLDFATEPTDSFLGLITMEDQEDMFSSARMYEIGRRRPTDDDSDPDDDDETEDEDEDDEEEDDLDRILGLAGDNSDSGDDDLSSEDNEDSVSDFDEEADILIDGDFMEELIEGENEDDGNGEDEDDDDDGEMQDFMSSGEEDDYRDNIRSS
partner: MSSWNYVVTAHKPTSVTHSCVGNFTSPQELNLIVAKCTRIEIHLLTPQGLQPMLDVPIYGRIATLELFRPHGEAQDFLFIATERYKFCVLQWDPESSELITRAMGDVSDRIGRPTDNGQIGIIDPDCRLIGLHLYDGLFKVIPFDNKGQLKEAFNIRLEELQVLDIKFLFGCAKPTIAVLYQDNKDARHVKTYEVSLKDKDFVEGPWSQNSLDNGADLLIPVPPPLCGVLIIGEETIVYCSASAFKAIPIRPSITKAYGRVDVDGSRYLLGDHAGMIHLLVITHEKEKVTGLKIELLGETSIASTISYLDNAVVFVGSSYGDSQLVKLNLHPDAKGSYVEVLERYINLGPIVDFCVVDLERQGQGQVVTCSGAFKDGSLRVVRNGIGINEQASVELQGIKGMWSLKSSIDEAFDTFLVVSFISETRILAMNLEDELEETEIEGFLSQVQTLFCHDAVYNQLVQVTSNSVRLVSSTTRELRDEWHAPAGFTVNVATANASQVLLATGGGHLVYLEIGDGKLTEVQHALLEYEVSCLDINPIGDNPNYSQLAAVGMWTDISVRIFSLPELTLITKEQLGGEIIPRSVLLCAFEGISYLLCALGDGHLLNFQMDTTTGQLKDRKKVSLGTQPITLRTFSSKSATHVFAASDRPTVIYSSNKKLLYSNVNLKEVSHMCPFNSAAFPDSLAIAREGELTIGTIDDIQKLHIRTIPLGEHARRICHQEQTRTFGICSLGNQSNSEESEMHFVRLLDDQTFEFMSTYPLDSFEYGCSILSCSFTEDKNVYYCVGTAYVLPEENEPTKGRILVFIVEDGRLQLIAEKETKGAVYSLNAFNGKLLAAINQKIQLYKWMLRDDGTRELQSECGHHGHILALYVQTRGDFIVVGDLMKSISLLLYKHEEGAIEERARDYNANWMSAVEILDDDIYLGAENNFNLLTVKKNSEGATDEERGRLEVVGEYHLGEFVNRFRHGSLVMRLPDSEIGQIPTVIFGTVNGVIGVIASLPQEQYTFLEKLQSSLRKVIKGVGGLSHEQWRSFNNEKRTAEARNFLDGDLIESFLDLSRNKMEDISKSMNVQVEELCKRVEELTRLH

Variants of: B1
Settings: with ddb1a_arath DDB1A

effect of a mutation on the interaction | Variant
decreasing interaction | D1658A;R1660A
decreasing interaction | D1622A;R1624A;D1658A;R1660A
decreasing interaction | D1622A;R1624A
